± gives the uncertainty stated by the source.
Assay: protein stability index of a GFP-peptide fusion (yeast GPS) (PSI 1-4); higher = more stable; sorted into four equal gates, so the index is relative within each strain
In short: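 The protein stability index of a peptide was calculated by multiplying its read frequency in each gate by that gate's number and adding the products. The peptides were tiled 17-residue stretches of yeast proteins, fused downstream of GFP on a Cherry-expressing plasmid and carried in yeast as a pooled library. Mid-log cultures in leucine-free medium were sorted into four equal gates by GFP/Cherry ratio, and each gate's plasmids were PCR-amplified and Illumina-sequenced.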

Sequence | protein stability index (doa10∆) | protein stability index (pdr5∆) | protein stability index (san1∆) | protein stability index (ubr1∆)
NNGSSDKSLDSSNASFN [MED1] | 2.92 ± 0.13 | 3.04 ± 0.15 | 3.08 ± 0.22 | 2.98 ± 0.12
NNIFKEFTSKIGFTIKE [SMC1] | 2.34 ± 0.054 | 2.69 ± 0.063 | 2.76 ± 0.1 | 2.7 ± 0.046
NNIIRIQQLISQFLKRV [SNF11] | 2.1 ± 0.039 | 2.14 ± 0.057 | 2.13 ± 0.065 | 2.3 ± 0.045
NNKITQLIAKNVANVSG [SIR3] | 1.7 ± 0.067 | 1.88 ± 0.063 | 2.07 ± 0.094 | 2.35 ± 0.054
NNNEDNENNNNSSEKNN [MED2] | 3.11 ± 0.052 | 3.37 ± 0.043 | 3.2 ± 0.039 | 3.15 ± 0.048
NNNGNPGTTSTGNNNNI [GAL11] | 3.18 ± 0.12 | 3.34 ± 0.075 | 3.18 ± 0.061 | 3.23 ± 0.07
NNNNTIDESMPDTAIDS [GRR1] | 2.78 ± 0.061 | 3.02 ± 0.052 | 2.81 ± 0.061 | 3 ± 0.044
NNNQKIDDNYIVVVIEI [SRB8] | 3.16 ± 0.078 | 3.01 ± 0.065 | 3.29 ± 0.083 | 3.11 ± 0.1
NNPANNTNNNNSTGHSS [SWI1] | 2.58 ± 0.036 | 2.15 ± 0.035 | 2.59 ± 0.034 | 2.12 ± 0.036
NNSTGIANDNVITPHFI [SWI1] | 2.69 ± 0.041 | 2.95 ± 0.042 | 2.86 ± 0.031 | 2.9 ± 0.033
NNTLSRYADAGNIDTKN [RRP43] | 3.35 ± 0.064 | 3.21 ± 0.058 | 3.28 ± 0.041 | 3.5 ± 0.054
NNTNTGASGVDDFQNFF [SWI1] | 2.92 ± 0.068 | 3.16 ± 0.065 | 2.87 ± 0.069 | 3.31 ± 0.045
NNVTSNPSEFTPNMVNS [SSN2] | 2.93 ± 0.063 | 3.03 ± 0.053 | 2.66 ± 0.09 | 3.1 ± 0.05
NNVYFAAGALFVSSGFD [RPN14] | 1.78 ± 0.13 | 2.81 ± 0.15 | 1.92 ± 0.29 | 2.21 ± 0.17
NPASATDNMSGRGLWNP [YJL039C/NUP192] | 2.71 ± 0.079 | 3.1 ± 0.082 | 2.8 ± 0.076 | 3.16 ± 0.075
NPDDDYGFKQEIFDVTS [FAS1] | 3.38 ± 0.25 | 3.45 ± 0.11 | 3.17 ± 0.1 | 3.31 ± 0.055
NPHDGVNSIALFVGTDR [RPN14] | 2.08 ± 0.14 | 2.42 ± 0.096 | 2.33 ± 0.076 | 2.99 ± 0.11
NPIDPFNIIREFRSAAG [YDL116W/NUP84] | 3.14 ± 0.074 | 3.14 ± 0.07 | 3.16 ± 0.043 | 3.09 ± 0.063
NPMVPSSVNEDTFLPPP [PRP8] | 3.05 ± 0.058 | 3.32 ± 0.06 | 3.01 ± 0.04 | 3.1 ± 0.043
NPSQGVSNSGAQDEEIH [UBP6] | 2.04 ± 0.074 | 2.22 ± 0.068 | 2.04 ± 0.12 | 2.11 ± 0.059
NPTEFDWPTYVDQNPLT [SRB8] | 2.85 ± 0.068 | 2.44 ± 0.043 | 2.69 ± 0.054 | 2.19 ± 0.046
NPVALEQKLVDLLKFEN [BRR2] | 2.94 ± 0.17 | 3.23 ± 0.11 | 2.3 ± 0.12 | 2.47 ± 0.12
NQKLALVIKSGKYTLGY [RPL30] | 2.46 ± 0.11 | 2.87 ± 0.09 | 2.29 ± 0.13 | 2.93 ± 0.047
NQLSQTNKLLFKRVSQT [NUT1] | 1.92 ± 0.042 | 1.36 ± 0.037 | 1.37 ± 0.083 | 1.38 ± 0.035
NQLVAKLLLLRINSTDE [SRB8] | 1.67 ± 0.11 | 1.22 ± 0.17 |  | 1.14 ± 0.055
NQMKVAPIPKQLLQRIP [GAL11] | 2.28 ± 0.07 | 2.54 ± 0.062 | 2.52 ± 0.054 | 2.3 ± 0.043

Sequence | protein stability index (doa10∆) | protein stability index (pdr5∆) | protein stability index (san1∆) | protein stability index (ubr1∆)
NQTRKAHRNGIKKPKTY [RPL29] | 2.65 ± 0.083 | 2.98 ± 0.072 | 2.92 ± 0.058 | 2.99 ± 0.063
NQYKLVFYQVTPEDADE [RPL22B] | 2.21 ± 0.1 | 2.7 ± 0.082 | 2.34 ± 0.059 | 2.14 ± 0.085
NRHNLLNDVVSFLFSAI [SWI1] | 2.19 ± 0.077 | 2.58 ± 0.05 | 2.4 ± 0.067 | 2.4 ± 0.043
NRLSRIHLYMLTFHTLK [YLR018C/POM34] | 1.42 ± 0.068 | 1.58 ± 0.06 | 1.54 ± 0.12 | 1.44 ± 0.047
NRSVVYFKLDLTSDLVY [RRI2] | 1.37 ± 0.14 | 1.92 ± 0.28 |  | 1.39 ± 0.078
NSAARNIQHLLYGKRFF [PRE7] | 2.13 ± 0.08 | 2.72 ± 0.084 | 2.12 ± 0.1 | 2.45 ± 0.076
NSANGSSLNGTNAKIPQ [SSN3] | 2.38 ± 0.071 | 2.72 ± 0.071 | 2.53 ± 0.076 | 2.56 ± 0.057
NSAVNNAISNTQDDFTT [SRP54] | 3.42 ± 0.1 | 3.07 ± 0.07 | 3.04 ± 0.064 | 3.31 ± 0.045
NSDHAKFTIEPGVLPVG [SNF2] | 2.23 ± 0.046 | 2.27 ± 0.054 | 2.32 ± 0.098 | 1.83 ± 0.046
NSKPVELKPVSLDNKTL [YJL041W/NSP1] | 2.8 ± 0.055 | 2.75 ± 0.059 | 2.69 ± 0.076 | 2.58 ± 0.064
NSLAVRGKDCTVVISQK [SCL1] | 2.64 ± 0.075 | 2.9 ± 0.062 | 2.94 ± 0.051 | 2.72 ± 0.045
NSNKQAVAILADDEKSD [BRR2] | 3.04 ± 0.091 | 3.07 ± 0.071 | 3.03 ± 0.086 | 2.88 ± 0.044
NSSEKNNNNNNNNNNNN [MED2] | 3.09 ± 0.058 | 3.03 ± 0.058 | 2.95 ± 0.059 | 3.12 ± 0.053
NSSEQESDYEPNNETSV [SIR3] | 3.11 ± 0.084 | 3.27 ± 0.085 | 3.02 ± 0.063 | 2.84 ± 0.092
NSTASSSNISPEQVYSL [ARP7] | 2.57 ± 0.05 | 2.78 ± 0.046 | 2.63 ± 0.051 | 2.88 ± 0.039
NTENVESVPTPANAEPQ [ITC1] | 3.11 ± 0.087 | 3 ± 0.086 | 2.96 ± 0.1 | 3.22 ± 0.12
NTEQGDSDELGGESMEG [SNM1] | 3.45 ± 0.1 | 3.54 ± 0.11 | 3.4 ± 0.093 | 3.39 ± 0.085
NTFTWNHSLQHQNESSA [RPN4] | 3.08 ± 0.056 | 3.19 ± 0.055 | 3.18 ± 0.058 | 3.17 ± 0.037
NTGGESVVKKEDNKYAI [RGR1] | 3.51 ± 0.1 | 3.39 ± 0.1 | 3.33 ± 0.094 | 3.4 ± 0.085
NTGIVSSTTGMSYVVRI [RPT3] | 3.17 ± 0.11 | 3.04 ± 0.19 | 3.31 ± 0.11 | 3.25 ± 0.09
NTLRMKHGTYDKLDDDG [RPB2] | 2.77 ± 0.077 | 2.83 ± 0.061 | 2.83 ± 0.063 | 2.89 ± 0.045
NTMSAWVNMLLISSSGP [FAS2] | 1.99 ± 0.07 | 1.32 ± 0.051 | 1.37 ± 0.1 | 1.52 ± 0.043
NTNNNNNPANNTNNNNS [SWI1] | 3.06 ± 0.033 | 3 ± 0.03 | 3.344 ± 0.026 | 3.435 ± 0.026
NTNNNNSTGHSSNTNNN [SWI1] | 2.63 ± 0.049 | 2.29 ± 0.05 | 2.41 ± 0.058 | 1.93 ± 0.05
NTSLISLFTYFREAIVA [PRP8] | 1.3 ± 0.049 | 1.49 ± 0.054 | 1.34 ± 0.1 | 1.44 ± 0.049

— the supplement of paper PMC9732359
